Reference: patent publication US20110151448A1 (GENEPROTECH, published 2011)
Side chains are listed from the residue outwards. Ends that are not written are not given here. hairpin oligonucleotide = not defined here

T1: RAD51 (UniProt Q08297 1-339, limits assumed)
T1 sequence (looked up): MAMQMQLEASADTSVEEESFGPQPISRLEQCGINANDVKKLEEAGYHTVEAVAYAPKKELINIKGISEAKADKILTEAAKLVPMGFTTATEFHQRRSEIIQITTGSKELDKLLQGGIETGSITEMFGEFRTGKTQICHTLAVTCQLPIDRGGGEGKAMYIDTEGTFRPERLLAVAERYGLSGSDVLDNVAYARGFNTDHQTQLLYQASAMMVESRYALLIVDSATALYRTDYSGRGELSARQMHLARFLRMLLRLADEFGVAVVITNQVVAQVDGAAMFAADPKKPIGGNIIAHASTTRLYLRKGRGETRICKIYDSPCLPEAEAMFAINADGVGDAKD

B1: BRC5 negative bait peptide (mouse BRCA2 BRC5 repeat with an added C-terminal cysteine), as attached to the targeting vector BRC5-HPRT-NLS (peptide)
peptide: SSYPVTEDSALAYYTEDSRKTCVRESSLSKGRKWLREQGDKLGTRNTIKIEC([sulfo‑SMCC-hairpin oligonucleotide])
modifications: reading uncertain; also: conjugated via oligonucleotide to HPRT targeting DNA
B2: BRC3 bait peptide (mouse BRCA2 residues 1391-1458 with an added C-terminal cysteine), as attached to the targeting vector BRC3-HPRT-NLS (peptide)
peptide: ERNIKEFNISFQTASGKNTRVSKESLNKSVNIFNRETDELTVISDSLNSKILHGINKDKMHTSSHKKAC([sulfo‑SMCC-hairpin oligonucleotide])
modifications: reading uncertain; also: conjugated via oligonucleotide to HPRT targeting DNA
B3: RAD52 bait peptide (mouse RAD52 residues 294-344 with an added C-terminal cysteine), as attached to the targeting vector RAD52-HPRT-NLS (peptide)
peptide: VAAKHAAVLPAPPKHSTPVTAASELLQEKVVFPDNLEENLEMWDLTPDLEDC([sulfo‑SMCC-hairpin oligonucleotide])
modifications: reading uncertain; also: conjugated via oligonucleotide to HPRT targeting DNA

Columns and labels:
[1] = target: T1, RAD51; experiment: cell-based or functional assay
[2] = target: T1, RAD51; experiment: cell-based or functional assay; remark: listed apart in the source

Binder | Fold increase of targeted recombination = ratio of control (HP-HPRT)/ratio of expt. vector (Exp 3, F9 cells) [1] | increase in the relative recombination frequency compared to control (HP-HPRT) [2] | Fold increase of targeted recombination = ratio of control (HP-HPRT)/ratio of expt. vector (Exp 4, F9 cells) [1] | Fold increase of targeted recombination = ratio of control (HP-HPRT)/ratio of expt. vector (Exp 5, F9 cells) [1] | increase in targeted homologous recombination relative to a conventional targeting vector (HPRT, ends not protected) [2] | increase of targeted recombination compared with the control vector (HP-HPRT) [2] | Fold increase of targeted recombination = ratio of control (HP-HPRT)/ratio of expt. vector (Exp 1, F9 cells) [1] | Fold increase of targeted recombination = ratio of control (HP-HPRT)/ratio of expt. vector (Exp 2, F9 cells) [1]
B1 | 1.1 fold | – | – | – | – | – | – | –
B2 | – | 1.5 fold | 2.2 fold | 2.3 fold | – | – | – | –
B3 | – | – | 2.2 fold | – | 3.5 fold | 2.6 fold | 2 fold | 2.2 fold
